These results are taken from a protein production outcome set (Wang et al. 2014).

The data set can be described thus: label from the status in PepcDB records.
Turning to “GFSHRSQQLLEQSVAKQLPLLERKYHQKNLEAAMVVTDIASGEIRALVGGRESGYAGFNRALNAKRHIGSLIKPAIYVAALERYQQYNFATILDDKAITLRNGTGKKWQPKNYDGKYRGQVSLIEGLVFSLNVPTINLGMSLGLDSVADAIKALGYQQKLKMRPSVLLGAVNMSPLEINQLYLAIANNGYYQKTHTITKILSSNNETLWQKQQSSEQRLSSNAAYLLDYALERVTQVGTARSLTWRLNNKKVAGKTGTSNALRDSWFIGYDSKHLITTWLGKDNNKPTGLTGSSGALPLFADFINKQGVINKVEAK”, the protein production entry is reported as “failed”.
The value for “MSLKKKIAVVTGATGGMGIEIVKDLSRDHIVYALGRNPEHLAALAEIEGVEPIESDIVKEVLEEGGVDKLKNLDHVDTLVHAAAVARDTTIEAGSVAEWHAHLDLNVIVPAELSRQLLPALRAASGCVIYINSGAGNGPHPGNTIYAASKHALRGLADAFRKEEANNGIRVSTVSPGPTNTPMLQGLMDSQGTNFRPEIYIEPKEIANAIRFVIDAGETTQITNVDVRPRIELADRKEGHHHHHH” was “not failed”; that for “MSSDAIETIETYLRPGAWVEDAAGPLYVRLRKRIEQGIDSGLLAKSAPLPAEREIASLTGLSRVTVRRAMQELVDRGIIVQRQGSGSFVADAAPRVEQSLSHLTSFTEDMERRGLNVTSEWLTRGVFIPSPEEVMALALSSGEQVARVARLRRAEGRPMAIERASLPTDILPDPELVSSSLYAVLERDGNRPVRALQRISAVNLGAEDAALLGVEPGTAGLRIIRTSYLPNRRVIEYTRSLYRADAYDFVAELRLGNS” was “failed”; that for “MSAYIIETLIKILILVAVFSALGGFATYIERKVLAYFQRRLGPCYVGPFGLLQVAADGIKLFTKEDIIPQGANKFIFTLAPIIAMVSAFVSMAPIPFFPNFTLFGYEIKPLISDINIGFLFFLAVGSAGIYAPILAGLASNNKYSLIGSARATIQLLSFEVVSTLTILAPLMVVGSLSLVEINHYQSGGFLDWLVFKQPLAFVLFLIASYAELNRTPFDLLEHEAEIVAGYCTEYSGLKWGMFFLAEYAHLFAFSFVISIVFFGGFNAWGFIPGGIAILIKAGFFVFLSMWVRATYPHVRPDQLMDMCWKIMLPLALLNIVLTGIIILI” was “failed”.
For “MRLEKGMPLKRQIRLKTAIILPFVLTFLFMILAMAAVQTYRYEQTVKELSSKKLSYLTDSISQRLSDFLNRPFFANQMIAYNVGFHHLYQLNDVSRIEDFIRAAANPIGNNIQQIDVVGFGGVNGEYVGLRRDAPEQYSLMLKDARTDDKLVIYQTATKNDQLRTVIDNYDPRVRPWFAPVAQKPSPQWSSVYTNMDEKQEITLSALSPVFQDKRFIGVMVSDVKLNTFNQFLSELKQRMNADVYVMDKQHRLIAHSGEGSVVSWGTPLSPKGERLFASENRNPIIRSSAEQLDLQGLNVGTFTTYVNQQRYFNQASAFTDQYGLTWYISVSIAEGDLLGSLPENQKTSWAIGLLVSLVGLGLGLMALNRVANPIISTASAARQLANGDWTASMPKPGKIYETSLLVQAFIEMTNSLKASFKALRSQLVYDSLTQLLSREGLVEHCHQIPQLNGGLILIGIDKFRDINDSLGHHQADQLLVAIAQRLKVTFPEPALIARIGGDEFAIYLPDVNQQDDLKSVATDILKLFASPFSMPSDNIAVNVSIGIVYLEEPNMTVWLRNGSIALSNAKAEHTHISFYSPEMANASRKRMLMVTQIKLALDNQEFVPFYQPIVDLNSGEVLGAEALARWISPEFGLIPPMDFIPIAEESGLINAIGEQILRQACADTVRGIAENKWPSTFHMHVNLSVNQLSHPDFIAQLHSVLDESGLQPTNLTLEITESRIVDNDPVILHNMLELKKARIHIAIDDFGTGYSSLAYLHKLPFDCLKIDREFVSQLNAYNIENSVVAAIVNMTRGFKVELVAEGIETQEQVDLLNQLGCPRGQGFLFSKPMAYQDWPTDLVNMKQS”, the protein production result is “failed”.
“MLHSSIVLVIKEETMNVAKMYDDVSERYQKLVDDSHYVGPRWISGKLKTLPIEQGSALDLACATGSIGHVVKNHYPDLTIHGLDISSKMVDKARQTNLYQSVSVHNLDEPFSPLFEQTFDLITALGFTEFLAEPQQLLECISRKLTANGRCFISFQYHDPDGQDLPRNTYSGSVVHTAYTESEVEQLCQQAGLEVVSLENVIGYVSGVGYVCRYLMLELKKSHR”: the protein production entry was “failed”.
As for “MRYLIGGIFLLISIWQFIVTGRTFSYLKKEGGKRTSPFILLGLWSSLVFAIISFAVAIASFFYVSF”, the protein production entry was “failed”.
As for “MGHHHHHHSHGHAAVIGWKDLAYAGVIDSGGVCENIIAIPNPGTEPLNVAAVLCEGLDVVVYKGPEISLSPTRARPLLGKLRQGTAALVMVGTKVSSPALSVDAEITDYVGIGAGSGRIRGVEMQVRAVSKTHGVRSGKVLISRP”, the protein production entry is on record as “failed”.
“MSPSPLISHRAASADLAGMVRQARQRILLQGNVPGFDVARQIELLHGLAESELGRFLLLYRGLNAEWTHRLVTHQPGSGALAPLERVFYERLPAVLATRERHGHFRRALQRHLRPGCVVASVPCGWMSELLALDYSACPGVQLVGIDYDPEALDGATRLAAGHALAGQITLHRQDAWKLDTREGYDLLTSNGLNIYEPDDARVTELYRRFWQALKPGGALVTSFLTPPPALSPDSPWDMQAIDPHDLQLQQLVFTRLIQPRWNALRTHAQTRAQLEEAGFTDLRFEDDRARLFPTVIARKPA”: the protein production entry was “not failed”.
On to “KIRSYTSIWSVEKVLYSINDFRLPFPITFTQMTWFVVSLFAVMILGNVPPLSMIEGAFLKYFGIPVAFTWFMSTKTFDGKKPYGFLKSVIAYALRPKLTYAGKKVTLGRNQPQEAITAVRSEFY”, for which the protein production result is recorded as “failed”.
For “MKTLLSRSTAVPAKLLAATAITATLSAPAFSADANVESLVKAAQKEGSIYSVGMPDSWANWKDTWADLQSNYGLKHQDTDMSSAQEIAKFEAEKKNATADIGDVGFAFARVAVKKGVTQPYKPTTWNDIPDWAKDKDGHWALAYTGTISFISNNNLVKDAPKTWGDLLKGDYKVTVGDVGVAAQANNAVLAAAFANGGDESNLKPAIKFFAELAKQGRLSFTDPNIANLEKGEVEVAIMWDFNALNYRDKIDRERFTVTIPQDGSVISGYTTIINKYAKNPNAAKLAREYIFSDQGQINLAEGYARPIRTSITLPKSVQDKLIANDQYSNVHPVTDFSAWEKSARKLPRQWQESVLIHQQ”, the protein production entry was “failed”.
On to “MQGIKRKLVYVTAYELIGMSISTLGLALLAGSTPTTTGPLAVVITTVAVTWNFIYNCLFEFWERRQAVRGRSIARRVAHAIGFQLTLVVYLIPLIAWWMGISLLEAFWLDLALIVLIPCYTFLFNWAFDRLFGLPTSALPAGEAASV”, for which the protein production result is listed as “failed”.
Turning to “MQYANAYQAYQHNRVSVESPAKLIEMLYEGILRFSSQAKRCIENEDIEKKIYYINRVTDIFTELLNILDYEKGGEVAVYLTGLYTHQIKVLTQANVENDASKIDLVLNVARGLLEAWREIHSDELA”, the protein production entry is “failed”.
In the case of “AARNLSKEEYAANHPAGRIGKSLIFKVKDVMKKQEELPVCKEGDLIMDQLVELTSKGCGCLLVVDEHSRLIGTFTDGDLRRTLKASGEAIFKLSVGEMCNRKPRTIGPETMAVEAMKKMESPPSPVQFLPVVNEDNTLIGIVTLHGLVSA”, the protein production entry was “failed”.
With “ETEDQTNMIAIQADGCYIVDALTPIEDFNERFNAEFPDDDYDTIGGLVTEAIGHLPETGDELTIGRFAFRVAKANARRIHILHVTVLP”, the protein production result is reported as “not failed”.
Turning to “MNTSNRRMGLFYVITGATCWGIGGTVAKKLFQEYQIDVNWLVTTRLLTAGMLLLMLQLFRKDRSQVIEVWKHKASAGQLLIFGLLGMLAVQYTYMASIQHGNAAVATLLQYLSPVIVIIYTLLRKQTVLTKQDIITVVLALVGCFFLLTNGSMSQLSVPAAAVVWGVLSGFAAAFYTLYAVGLLNKFDSLVVVGWAMIIGGFALGFIHPPWQLDFQRLTAEAYAYILFVILFGTMIAFWFFIKSLESLSPKETSLLGSLEPLSAVVTTVVWLKAPFGSFQWIGAICIIGITLILALHKEPSMESEKSILKIRNHANRDI”, the protein production entry is recorded as “failed”.
As to “MNAVGLVAFATVGSLKAIDADFDVLGVAVLGVLTALGGGATRDVLVGSVPAMLQSTTDVGFALAGVVVAVVVARRVGTEVLAHPVVDVPDAVGLAAFAASGALVGVGADVSPFGVVVLGTTTGVGGGLVSDVLLQRVPFVLTEDLYATCAIAGSTVLWVATASGLGATIAAAAGAGVTLAVRLLAIRFEWALPTVRLNAPA”, the protein production entry is “failed”.
